Source: article PMC12637021, “Talin–tensin3 interactions regulate fibrillar adhesion formation and tensin3 phase separation” (The Journal of Cell Biology, 2025)

Columns and labels:
[1] = tested on: NIH3T3 cells; assay: tensin3 condensate formation, NIH3T3 cells; assay type: cell-based, mouse
Method: (§1) To establish a correlation between tensin3 expression and condensation formation, a maximum intensity Z-projection was performed on Z-stack images of NIH3T3 cells (step depth 0.2 μm). The integrated fluorescence intensity was measured by normalizing the mean pixel intensity of each cell to the average of all values in cells expressing mCh-TNS3. To measure the condensate coverage in NIH3T3 cells, the images were background-subtracted (rolling ball) and then thresholded. This was followed by the Analyse Particles function in FIJI/ImageJ to select round condensate structures (circularity 0.7–1.0) ([Bussi et al., 2023]; [Dumelie et al., 2024]) with a size larger than 0.1 μm^2. The same settings were applied to quantify the number of condensates in NIH3T3 and HFF cells.
The percentage of NIH3T3 cells transfected with mCh-TNS3 that form phase-separated condensates was quantified manually in images (610 × 499 μm) acquired with a 20× objective. To quantify the mean radius (R) of the condensates, the area covered by the condensates was divided by the number of condensates for each cell to obtain the mean size (A) of the condensates, followed by the formula of R = √(A/3.14).

[2] = tested on: TNS3KO cells; assay: FN fibrils, rescue of TNS3KO cells; assay type: cell-based, human; conditions: vs TNS3-WT; IST9 antibody; 40 × 40 μm squares; n = 56 (WT) and 54 (L702E) cells
Method: (§2) Cells were fixed in 4% paraformaldehyde (PFA, Sigma-Aldrich), which had been prewarmed to 37°C for 15 min before being washed three times with PBS. For immunofluorescence staining, cells were permeabilized with 0.5% Triton X-100 (Sigma-Aldrich) at room temperature for 5 min before being washed three times with PBS. Blebbistatin (Tocris Bioscience) was diluted in dimethyl sulfoxide (Sigma-Aldrich) and used at a final concentration of 50 μM. […]
To analyze the FN fibrils, the images were background-subtracted (rolling ball), before 40 × 40 μm square boxes were applied for particle analysis to count FN fibrils larger than 0.2 μm^2. The FN coverage was calculated by dividing the area covered by FN fibrils by the total area of the box (1,600 μm^2).

[3] = tested on: NIH3T3 cells; assay: adhesion stability under blebbistatin, NIH3T3 cells; assay type: cell-based, mouse; conditions: blebbistatin 50 µM, 60 min; n = 64 (WT), 49 (L702E), 62 (ΔPTB), 71 (Cterm) cells
Method: as §2
(§3) Analysis of cell adhesion sites, FN fibrils, and LLPS condensates was performed using FIJI/ImageJ (version 1.54f) software ([Schindelin et al., 2012]). […] Prior to adhesion quantification, the images were background-subtracted using a rolling ball algorithm, followed by thresholding of adhesion sites and Analyse Particles functions in FIJI/ImageJ to quantify adhesions. Adhesion sites with sizes between 0.4 and 10 μm^2 were counted, except for adhesions in blebbistatin-treated cells, which were counted with sizes between 0.2 and 4 μm^2. […]

[4] = tested on: active β1 integrin, U2OS TNS3KO cells; assay: β1 integrin-positive adhesions, U2OS TNS3KO cells; assay type: cell-based, human; conditions: vs TNS3-WT; FN-coated; 9EG7
Method: as §2, §3

[5] = tested on: U2OS TNS3KO cells; assay: adhesion stability under blebbistatin, U2OS TNS3KO cells; assay type: cell-based, human; conditions: blebbistatin 50 µM
Method: Cells were fixed in 4% paraformaldehyde (PFA, Sigma-Aldrich), which had been prewarmed to 37°C for 15 min before being washed three times with PBS. For immunofluorescence staining, cells were permeabilized with 0.5% Triton X-100 (Sigma-Aldrich) at room temperature for 5 min before being washed three times with PBS. Blebbistatin (Tocris Bioscience) was diluted in dimethyl sulfoxide (Sigma-Aldrich) and used at a final concentration of 50 μM. The following primary antibodies were diluted in 1% bovine serum albumin (BSA, Sigma-Aldrich): mouse anti-α5 integrin (SNAKA51, 1:100, NBP2-50146; Novus Biologicals), rat anti-β1 integrin (9EG7, 1:200; 553715; BD Biosciences), mouse anti-FN (IST-9, 1:100, ab6328; Abcam), rabbit anti-tensin3 (1:200, HPA055338; Atlas), mouse anti-EEA1 (1:500, 68065-1-IG; Proteintech), mouse anti-LAMP1 (1:200, ab320851; Abcam), mouse anti-paxillin (349, 1:400, mab3060; Sigma-Aldrich), rabbit anti-talin1 (1:200, 82856-4-RR; Proteintech), mouse anti-vinculin (hVin1, 1:500, V9264; Sigma-Aldrich), rabbit anti-KANK2 (1:100, HPA015643; Sigma-Aldrich), rabbit anti-kindlin2 (1:100, 11453-1-AP; Proteintech), rabbit anti-GIT1 (1:200, 26247-1-AP; Proteintech), mouse anti-phosphotyrosine (4G10, 1:200, 05-321X; Sigma-Aldrich), rabbit anti-G3BP1 (1:600, 13057-2-AP; Proteintech), rabbit anti-TDP43 (1:400, 10782-2-AP; Proteintech), and rabbit anti-GIGYF1 (1:400, ab121784; Abcam). […]
as §3

[6] = tested on: NIH3T3 cells; assay: condensates on soft vs stiff PDMS, NIH3T3 cells; assay type: cell-based, mouse; conditions: 1.5 kPa vs 28 kPa FN-coated PDMS, overnight
Method: Imaging dishes equipped with 40 µm-thick PDMS substrates (1.5 and 28 kPa) were purchased from ibidi. PDMS dishes were coated with 30 μg/ml FN for 1 h, followed by three washes with PBS. Dishes were incubated with DMEM for 10 min to equilibrate before cells were plated and incubated overnight at 37°C.
as §1

B1: TNS3-L702E: tensin3 carrying the L702E point mutation that blocks the interaction with talin (protein, UniProt Q68CZ2 1-1445, looked up, variant L702E)
Tensin-3: MEEGHGLDLTYITERIIAVSFPAGCSEESYLHNLQEVTRMLKSKHGDNYLVLNLSEKRYDLTKLNPKIMDVGWPELHAPPLDKMCTICKAQESWLNSNLQHVVVIHCRGGKGRIGVVISSYMHFTNVSASADQALDRFAMKKFYDDKVSALMQPSQKRYVQFLSGLLSGSVKMNASPLFLHFVILHGTPNFDTGGVCRPFLKLYQAMQPVYTSGIYNVGPENPSRICIVIEPAQLLKGDVMVKCYHKKYRSATRDVIFRLQFHTGAVQGYGLVFGKEDLDNASKDDRFPDYGKVELVFSATPEKIQGSEHLYNDHGVIVDYNTTDPLIRWDSYENLSADGEVLHTQGPVDGSLYAKVRKKSSSDPGIPGGPQAIPATNSPDHSDHTLSVSSDSGHSTASARTDKTEERLAPGTRRGLSAQEKAELDQLLSGFGLEDPGSSLKEMTDARSKYSGTRHVVPAQVHVNGDAALKDRETDILDDEMPHHDLHSVDSLGTLSSSEGPQSAHLGPFTCHKSSQNSLLSDGFGSNVGEDPQGTLVPDLGLGMDGPYERERTFGSREPKQPQPLLRKPSVSAQMQAYGQSSYSTQTWVRQQQMVVAHQYSFAPDGEARLVSRCPADNPGLVQAQPRVPLTPTRGTSSRVAVQRGVGSGPHPPDTQQPSPSKAFKPRFPGDQVVNGAGPELSTGPSPGSPTLDIDQSIEQENRLILELDPTFEPIPTHMNALGSQANGSVSPDSVGGGLRASSRLPDTGEGPSRATGRQGSSAEQPLGGRLRKLSLGQYDNDAGGQLPFSKCAWGKAGVDYAPNLPPFPSPADVKETMTPGYPQDLDIIDGRILSSKESMCSTPAFPVSPETPYVKTALRHPPFSPPEPPLSSPASQHKGGREPRSCPETLTHAVGMSESPIGPKSTMLRADASSTPSFQQAFASSCTISSNGPGQRRESSSSAERQWVESSPKPMVSLLGSGRPTGSPLSAEFSGTRKDSPVLSCFPPSELQAPFHSHELSLAEPPDSLAPPSSQAFLGFGTAPVGSGLPPEEDLGALLANSHGASPTPSIPLTATGAADNGFLSHNFLTVAPGHSSHHSPGLQGQGVTLPGQPPLPEKKRASEGDRSLGSVSPSSSGFSSPHSGSTISIPFPNVLPDFSKASEAASPLPDSPGDKLVIVKFVQDTSKFWYKADISREQAIAMLKDKEPGSFIVRDSHSFRGAYGLAMKVATPPPSVLQLNKKAGDLANELVRHFLIECTPKGVRLKGCSNEPYFGSLTALVCQHSITPLALPCKLLIPERDPLEEIAESSPQTAANSAAELLKQGAACNVWYLNSVEMESLTGHQAIQKALSITLVQEPPPVSTVVHFKVSAQGITLTDNQRKLFFRRHYPVNSVIFCALDPQDRKWIKDGPSSKVFGFVARKQGSATDNVCHLFAEHDPEQPASAIVNFVSKVMIGSPKKV
modifications: mCherry or GFP tag
- Spearman's r, expression level vs condensate coverage ([1]; n = 181 cells (WT), 168 cells (L702E)): 0.9013
- fold increase in number of condensates ([1]; vs TNS3-WT, condensates >0.1 μm^2, circularity 0.7–1, n = 68 (WT) and 100 (L702E) cells): 2.2 fold
- condensate size ([1]; vs TNS3-WT, mean radius): larger
- fewer FN fibrils [2]: over 70%
- construct-positive adhesions after blebbistatin [3]: mostly disappear
- reduction of adhesion-promoting effect (β1 integrin-positive adhesions) [4]: 57%
- subcellular localization of construct under blebbistatin [5]: almost exclusively found in the LLPS condensates in the cytoplasm
- condensates on soft vs stiff substrate [6]: no difference in condensate formation on soft versus stiff substrates
